Experimental data as given in patent publication US20250027068.

B1: PRT-532 (protein)
chain: MANQEIRYSEETPKTITSIWTKGVTPPTDFIKNEDVLHAPYIANQGWYDITKTFNGKDDLLCGAATAGNMLHWWFDQNKEEIENYLKKHPEKQKINFNGEQMFDVKEAIDTKDSQTDSKLFEYFKDKAFPYLSTKHLGVMPDLVLDMFINGYYLSLGKHGPTPVKRGTKDPRGGIFDAVFTRGDQSKLLTARHDFKEKTLNEISDLIKQELTEGKALALSHTYANVRINHVINLWGADFNSEGNLEAIYVTDSDSNASIGMKKYYVGVNAAGKVAISAKEIEGDNIGAQVLGLFTLSTGQDIWNQTNLEHHHHHH
B2: PRT-639 (protein)
chain: MQITSVWTKGVTPLTPEQFRYNNEDVIHAPYLAHQGWYDITKTFNGKDDLLCGAATAGNMLHWWFDQNKTEIEAYLSKHPEKQKIIFNNQELFDLKAAIDTKDSQTNSQLFNYFRDKAFPNLSARQLGVMPDLVLDMFINGYYLNVFKTQSTDVNRPYQDKDKRGGIFDAVFTRGDQTTLLTARHDLKNKGLNDISTIIKQELTEGRALALSHTYANVSISHVINLWGADFNAEGNLEAIYVTDSDADASIGMKKYFVGINAHGHVAISAKKIEGENIGAQVLGLFTLSSGKDIWQKLSLEHHHHHH
B3: PRT-620 (protein)
chain: MQITSVWTKGVTPLTPEQFRYNNEDVIHAPYLAHQGWYDITKAFDGKDNLLCGAATAGNMLHWWFDQNKTEIEAYLSKHPEKQKIIFNNQELFDLKAAIDTKDSQTNSQLFNYFRDKAFPNLSARQLGVMPDLVLDMFINGYYLNVFKTQSTDVNRPYQDKDKRGGIFDAVFTRGDQTTLLTARHDLKNKTLKEISDIIKQELTEGRALALSHTYANVSISHVINLWGADFNAEGNLEAIYVTDSDANASIGMKKYFVGINAHGHVAISAKKIEGENIGAQVLGLFTLSSGKDIWQKLSLEHHHHHH
B4: PRT-640 (protein)
chain: MQITSVWTKGVTPLTPEQFRYNNEDVIHAPYLAHQGWYDITKTFNGKDNLLCGAATAGNMLHWWFDQNKTEIEAYLSKHPEKQKIIFNNQELFDLKAAIDTKDSQTNSQLFNYFRDKAFPNLSARQLGVMPDLVLDMFINGYYLNVFKTQSTDVNRPYQDKDKRGGIFDAVFTRGDQTTLLTARHDLKNKGLNDISTIIKQELTEGRALALSHTYANVSISHVINLWGADFNAEGNLEAIYVTDSDADEKIGMKKYFVGINAHGHVAISAKKIEGENIGAQVLGLFTLSSGKDIWQKLSLEHHHHHH
B5: PRT-607 (protein)
chain: MQITSVWTYGVKPLTPEQFRYNNEDVIHAPYLEHQGWYDITKAFDGKDNLLCGAATAGNMLHWWFDQNKTEIEAYLSKHPEKQKIIFNNQELFDLKAAIDTKDSQTNSQLFNYFRDKAFPNLSARQLGVMPDLVLDMFINGYYLNVFKTQSTDVNRPYQDKDKRGGIFDAVFTRGDQTTLLTARHDLKNKGLNDISTIIKQELTEGRALALSHTYANVSISHVINLWGADFNAEGNLEAIYVTDSDANASIGMKKYFVGINAHGHVAISAKKIEGENIGAQVLGLFTLSSGKDIWQKLSLEHHHHHH
B6: PRT-654 (protein)
chain: MQITSVWTKGVTPLTPEQFRYNNEDVIHAPYLAHQGWYDITKAFDGKDNLLCGAATAGNMLHWWFDQNKTEIEAYLSKHPEKQKIIFNNQELFDLKAAIDTKDSQTNSQLFNYFRDKAFPNLSARQLGVMPDLVLDMFINGYYLNVFKTQSTDVNRPYQDKDKRGGIFDAVFTRGDQTTLLTARHDLKNKGLNDISTIIKQELTEGRALALSHTTGNVSYSHVINLWGADFNAEGNLEAIYVTDSDANASIGMKKYFVGINAHGHVAISAKKIEGENVGAQVLGLFTLSSGKDIWQKLSLEHHHHHH
B7: PRT-629 (protein)
chain: MQITSVWTKGVTPLTPEQFRYNNEDVIHAPYLAHQGWYDITKAFDGKDNLLCGAATAGNMLHWWFDQNKEEIEAYLKKYPEKQKIIFNNQELFDLKAAIDTKDSQTNSQLFNYFRDKAFPNLSARQLGVMPDLVLDMFINGYYLNVFKTQSTDVNRPYQDKDKRGGIFDAVFTRGDQTTLLTARHDLKNKGLNDISTIIKQELTEGRALALSHTYANVSISHVINLWGADFNAEGNLEAIYVTDSDANASIGMKKYFVGINAHGHVAISAKKIEGENIGAQVLGLFTLSSGKEIWQKLSLEHHHHHH
B8: PRT-671 (protein)
chain: MQITTVWTKGVTPPTPEQFRNNNEDVFHAPYLPHQGWYDITKAFDGKDNLLCGAATAGNMLHWWFDQNKEEIEAYLKKYPEKQKIIFNNQELFDLRKAINTKDSQTNSQLFNYFRDKAFPNLSARQLGVMPDHVLDMFINGYYLNVFKTQSTDVNRPYQTRDKRGGIFDAVFNRGDQTTLLTERHDLYNKGLDDISTLIKQELSSGKALGLSHTYANVSISHVINLWGADFNAEGNLEAIYVTDSDDDASIGMKKYYVGKNASGHVRISAKKIEGENIGAQVLGLFTLSTGKDIWQKLSLEHHHHHH
B9: PRT-565 (protein)
chain: MANQEIRYSEATPSHITSVWTKGVTPPTQFIQNEDVLHAPYIANQGWYDITKTFNGKDDLLCGAATAGNMLHWWFDQNKEQIENYLKKHPEKQKINFNGEQMFDVKEAIDTKDSQTDSALFSYFKDKAFPYLSTKHLGVFPDHVIDMFINGYRLSLTNHGPTPVKRQTKDPRGGIFDAVFTRGDQSKLLTSRHDFKEKTLNEISQLIKQELTEGKALGLSHTYANVRINHVINLWGADFNAEGNLEAIYVTDSDSNASIGMKKYYVGVNSAGKVAISAKEIEGDNIGAQVLGLFTLSTGQDIWQQTNLEHHHHHH
B10: PRT-666 (protein)
chain: MQITSVWTKGVTPPTPEQFRNNNEDVFHAPYLANQGWYDITKTFNGKDDLLCGAATAGNMLHWWFDQNKTEIEAYLKKHPEKQKIIFNNQELFDLKKAIDTKDSQTNSQLFNYFRDKAFPNLSARQLGVMPDLVLDMFINGYYLNVTKTQSTDVNRPYQDKDKRGGIFDAVFTRGDQTTLLTSRHDLKNKGLNEISDLIKQELTEGKALALSHTYANVSINHVINLWGADFNAEGNLEAIYVTDSDSNASIGMKKYFVGVNASGKVAISAKKIEGENIGAQVLGLFTLSSGKDIWQKLSLEHHHHHH
B11: PRT-66 (protein)
chain: MANQEIRYSEVTPYHVTSVWTKGVTPPANFTQGEDVFHAPYVANQGWYDITKTFNGKDDLLCGAATAGNMLHWWFDQNKDYIKRYLEEHPEKQKINFNGEQMFDVKEAIDTKNHQLDSKLFEYFKEKAFPYLSTKHLGVFPDHVIDMFINGYRLSLTNHGPTPVKEGSKDPRGGIFDAVFTRGDQSKLLTSRHDFKEKNLKEISDLIKKELTEGKALGLSHTYANVRINHVINLWGADFDSNGNLKAIYVTDSDSNASIGMKKYFVGVNSAGKVAISAKEIKEDNIGAQVLGLFTLSTGQDSWNQTN
B12: PRT-615 (protein)
chain: MQITSVWTKGVTPLTPEQFRYNNEDVIHAPYLAHQGWYDITKAFDGKDNLLCGAATAGNMLHWWFDQNKTEIEAYLSKYPEKQKIIFNNQELFDLRAAINTKDSQTNSQLFNYFRDKAFPNLSARQLGVMPDLVLDMFINGYYLNVFKTQSTDVNRPYQDKDKRGGIFDAVFNRGDQTTLLTARHDLKNKGLNDISTIIKQELSSGRALALSHTYANVSISHVINLWGADFNAEGNLEAIYVTDSDANSNIGMKKYKVGINAHGHVAISAKKIEGENIGAQVLGLFTLSSGKDIWQKLSLEHHHHHH
B13: PRT-659 (protein)
chain: MQITSVWTKGVTPLTPEQFRYNNEDVIHAPYLAHQGWYDITKAFDGKDNLLCGAATAGNMLHWWFDQNKTEIEAYLSKHPEKQKIIFNNQELFDLREAINTKDDQKDSKLFNYFREKAFPNLSARQLGVMPDLVLDMFINGYYLNVFKTQSTDVNRPYQDKDKRGGIFDAVFTRGDQTTLLTARHDLKNKGLNDISTIIKQELTEGRALALSHTYANVSISHVINLWGADFNAEGNLEAIYVTDSDANASIGMKKYFVGINAHGHVAISAKKIEGENIGAQVLGLFTLSSGKDIWQKLSLEHHHHHH
B14: PRT-668 (protein)
chain: MQITSVWTKGVTPLTPEQFRYNNYDVFHAPYLAGQGWYDITKAFDGKDNLLCGAATAGNMLHWWFDQNKTEIEAYLSKYPEKQKIIFNNQELFDLRKAINTKDSQTNSELFNYFRDKAFPNLSARQLGVMPDLVLDMFINGYYLNVFKTQSTDVNRPYQDKDKRGGIFDAVFNRGDQTKLLTARHDLKNKGLNDISTLIKQELSSGRALALSHTTANVSISHVINLWGADFNAEGNLEAIYVTDSDDDSNIGMKKYKVGINASGHVAISAKKIEGENIGAQVLGLFTLSSGKDIWQKLSLEHHHHHH

What follows are proteins tested against pooled human IgG.

| Protein | Enzyme Activity Endpoint Assay (purified): Fab′2 [ng/µL] | Enzyme Activity Endpoint Assay (purified): Fc [ng/µL] | Enzyme Activity Endpoint Assay (purified): IgG [ng/µL] | Enzyme Activity Endpoint Assay (purified): scIgG [ng/µL] |
| --- | --- | --- | --- | --- |
| B1 | 409 | 118 | 506 | 217 |
| B2 | 788 | 450 | 0 | 0 |
| B3 | 792 | 448 | 0 | 0 |
| B4 | 951 | 507 | 0 | 0 |
| B5 | 779 | 470 | 0 | 0 |
| B6 | 401 | 0 | 1170 | 11 |
| B7 | 542 | 425 | 161 | 461 |
| B8 | 97 | 294 | 244 | 864 |
| B9 | 783 | 471 | 0 | 0 |
| B10 | 897 | 132 | 66 | 0 |
| B11 | 49 | 115 | 15 | 13 |
| B12 | 778 | 441 | 0 | 0 |
| B13 | 946 | 499 | 0 | 0 |
| B14 | 563 | 0 | 1070 | 14 |
